Results from patent US20240026407A1, “MODIFICATION OF SAPONINS” (GLAXOSMITHKLINE BIOLOGICALS SA, priority 2020, published 2024).

Assays:
Format in all cases: biochemical, Quillaja saponaria
[1] = Experiment 4-4: screening of glucosidases for deglycosylation of QS-18 in crude bark extract (1 in 20 dilution) to QS-21; details: CBE 1 in 20 dilution, pH 6, 25 degC, 18 hours; % conversion of Middle Peak by UV HPLC
Method in brief: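 Clarified glucosidase lysates were incubated with pH 6 crude bark extract (1 in 20) in potassium phosphate buffer pH 6 for 18 h at 25 °C with shaking, then quenched with MeCN. UV HPLC with MS/MS-supported peak identity; activity is % conversion of the extract's Middle Peak (QS-18 family) toward the QS-21 peak.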

[2] = Experiment 4-2: screening of glucosidases for deglycosylation with purified QS-18 (1 mg/ml) at pH 6 and 30 deg C; details: pH 6, 30 degC, 18 hrs, clarified lysate, LCMS/MS
Method in brief: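 Clarified lysates of glucosidase-expressing cells in 100 mM potassium phosphate pH 6 were incubated 18 h at 30 °C with QS-18 at 1 mg/ml final. Reactions quenched with MeCN; deglycosylation activity determined by LC-MS/MS.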

[3] = Experiment 4-1: screening of glucosidases for deglycosylation with purified QS-18 (0.04 mg/ml) at pH 7.5 and room temperature; details: pH 7.5, room temperature, 20 h, clarified E. coli lysate, QS-18 2150 to QS-21 1988 by LCMS/MS
Method in brief: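 Candidate glucosidases expressed in E. coli BL21(DE3) (pET24b+, autoinduction, 20 °C for 20 h); clarified lysates in 100 mM potassium phosphate pH 7.5 incubated with QS-18 (0.04 mg/ml final) 20 h at room temperature. Quenched with MeCN, analysed by LC-MS/MS for % conversion; hits >3 S.D. above negative control.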

B1: 365 (protein)
chain: MEDDGANSKTELSDQRKVALLSGADDWHTEAVPELGLEAVMMADGPHGLRKVMSASLADLQASEPATCFPTGSALAATWDRVLAGDVGRAIGREAVAEGVGVVLGPAVNLKRHPAAGRNFEYFSEDPFLAGELAVAWIDGVQGEGVGASLKHFAVNNQEANRMVVDAVVDPATLRELYLGAFEAAVRRSRPWTVMSAYNLLNGVYCSEDPWLLSELLRDQWGFDGLVVTDWGANDDRVAGIRAGQDLEMPGGHGTHDAAVLAALADGSLHRADLDGCVRRVLALLERADGARSGRPGSAMASPRPGADPDALHREHHQLARRAAAAGTVLLTNDGTLPLAPSGHVALIGEFAAHPRFQGGGSSQVKATRSDNLHAELRTHVDAAGGRVQYAPGYVLRARDDRPGEPARRVDEAVSIARGAEVAVVVVGLPDAVESEGFDRDHLHLPESHNILVRAVCAANPNTVVIVVAGSPVTMDWVDQPAAIIHGYLGGQAAGGALADVLVGAAEPGGRLAETFPVRSAGVASDRWFPGEPHQVTYREGPYIGYRWFDASGATPLFPFGHGLSYAEITLGVPTLSAQHVDAGVLLGGTDVVAPAEVPPPGAGPVAFTVTVPLTNAGDRAGSEVVQVYLESPDTGRPAAHRHLVGFAKVNLEPNSTREATVDVHARALCHWHPADRGWAVSAGTWGVAVGCSSGNLPHGLMVEVASSWSAPEPDPALDPYRNPRPDDWDPGVAAFEALLGRSVPEPTPVRPFTRNTTLGELGETRLGRPLLALVRAIVAHTTGGAHDEGGLGAMIDRSLGELPLRNLAVMSQGRVPMSAINRLIALANRMPGHPAGHPPGRPPGRSVGFTRPGRRR
modifications: Candidatus microthrix
Expt 4-4 % conv [1]: <3% | Expt 4-2 % conv [2]: 0.4% | Expt 4-1 % conv [3]: 1.3%

B2: 229 (protein, listed as Nectria haematococca)
chain: MASVDIPAILATLSLEEKVSLLAGKNLWETVPVPSKGVPNVKVSDGPNGARGASFAGGTTAACFPAACLMASTFDVKLAKRIGSALAEETQSKGARCLLAPTMCLHRHPLGGRNFESFSEDPLLTGKMAARVVEGLQDKGVSATIKHFAVNEQETDRLTVDETVNERALRELYLRPFEIAVKEANPWAVMTAYNKINGHHADCHPFTLKKVLRGDWGWNGLVMSDWGGTNSTPDSLEAGLDLEMPGPTRWRKPEDVIAAIKEGKTSEKTIDERATNVLRFLERLGCFKDPTIPDEKAINKPEHQALIREAGSKGIVLLKNQDKILPLSKEKVKGKKIALLGHAKIGLAHGGGSASVSAHYKVTPWDALHEALGDSVEFSYAKGAHTFRTLPAIAENVVGLDGKPGFTFKVYEPGSSEPIETRHGHADSEVSALGSFGFLNKDVSLEGAFTPQETAQYYFTCSGLGPSKLIIDDKVVYEQTENCSDAMGFLFGGVAAPEFKVALEAGRQYKLVLRTSPPSANDREDLGILEGLCGLRVGSMSESEHDRDLVSEAVEVAKNADYAVIFTGHEPFWETEGQDQVSFNLPKDGSQDRLISAVAAANPNTVVVNSTGVAIAMPWLNEIQGFLQTWYPGQECGNSIADVLTGAQTPEGHLTCTFPKKIEDCPAYGNFPGEYDNGKLKVTYKEGVFIGYRHFDRLPADKVNFPFGFGLSYTTFDFSSLEVKESGEGYTASLKVSNTGDVVGAIAVQVYVGAAQTAEENPVKQLVAFEKVTVKPGETASVEVPVRTRDFGFFDESKQKWVVKGGDYKFLIGKSARDIVLESTVAVKEQSFDL
Expt 4-4 % conv [1]: <3% | Expt 4-2 % conv [2]: 14.2% | Expt 4-1 % conv [3]: 91.1%

B3: 63 (protein, listed as Gynuella sunshinyii)
chain: MFDPVTILKQLNREEKVQLLCGLDAWHLHGVERLGIPSITLTDGPHGVRLAQSHDVFDSVDATVFPVEAAMAATWNVGLIKELAGAIAKECQQLGVSVLLGPGVNGKRSPLGGRNFEYFSEDPYLTGAMASNFVEGVQSQGVGACLKHFAGNEQETRRFLINSVIDERTLQEMYIAPFAKAIRESRPWTVMGAYNSVNGQFACQNSHLLQDILRDQLGFDGLVMSDWGAVGDKVACHQHGLDLEMPGPADRDQQLLDALDNGDMSEVVLDSRVLKVLELIHKSVTHKRDVQVDFERHHELAIEVACDSAVLLKNSGNLPLDKSRSIGLIGQFAKHPRFQGGGSSHMNPRHLSNAFEAFCSRAEVSWAMGYEELEMTDEMLREAVALAKRVDQVVLLTGTTDALESEGFDRSNMRLPEAHVELIKAVYQTNSNVVVVMYAGSALETRQIEDYAPSLMHAWLPGEGGGEALARLLFGEVSPSGKLSETFPVRLEHNPTYESFPGNKADTIYNEGIFTGYRYYDTKKLPVQYPFGYGLSYTSFAYSDLSYDASCREVAVNVTNIGDMAGAEVVQVYIHDEHSTLRRPDQELKGFAKVMLQPGETQRVSIALDEQAFAYFVTHLQRFAEESGRFEIRVGSSSRDIHESLWIELESDIECRQIPTLNDTVEDWLRDDRTRPILEDAFAQVGFTKDHSFYALTLGFPMTLLKKFMPMMGLTEQQCESLKDKLGLE
Expt 4-4 % conv [1]: <3% | Expt 4-2 % conv [2]: 54.2% | Expt 4-1 % conv [3]: 95.6%

B4: 176 (protein, listed as Streptomonospora sp.)
chain: MTTANRAAHAADAAREPQVEAALARLDLDGRIRLLSGATMWAIAPNPDIGLERLVMSDGPVGVRGEHWTPDDPALQLPSPTALAATWDTELIRTVGRTLAQEARRKGVHVLLAPTVNIHRSPLGGRHFECYSEDPLLTGRIGTAYVDGVQDGGVGTTVKHFVANDSETDRFTVDVRVDERTLREIYLAPFEAIVDGARPWGVMAAYNGVNGTTMTEHARLNAVLRDEWGFDGFIVSDWTAARDTVGCALAGMDVAMPGPSTVYGENLRAAVREGRVPEGAVEAMARRVLRLAARVGALEGAEPAVAPAALPPAIDGRAVAREAAARSFTLLRNEGRALPIDPARVGSVALIGLAADEARTSGGGSATVFTEHTVSPREGLRAALPESVRLDYAVGADPRASLPPLAGPLTAAFRDADGTVLATERLADGTARWIGELPDGVTAEGLSTIEVSGTLTPAYTGTHVFGAKGVGHFRLAVGGRVGFDGVNEVDGDDPGAGFLNPPESTAEFALTAGEAVEVSVVATVPGVSADFAFIGFSLNHSEPRAGDDELIEEAVRTAAGADVAIVIAATTEEVESEGFDRDSLELPGRQDELVSRVAAANPRTVAVVNTGSPVVMPWRGDVAAVLLTWFGGQELGAALADVLLGAEEPGGRLPTTWPAEQADVPVIGVRPDGGVLEYSEGVFVGYRAWQRLGAEPAYWFGHGLGYTTWDYTGADAAVRLDGGVSVTARLANTGARRGREVVQVYVSPQEEGGAPERPRRWLAGFAPVVAEPGASAEAVVEVPARAFQVWDSAAHDWRTVPGGYDVLVGRSVADTPVSARVEIAG
Expt 4-4 % conv [1]: <3% | Expt 4-2 % conv [2]: 0.4% | Expt 4-1 % conv [3]: 1.2%
